# No end group written: not given here. MR121 = fluorophore label at the N-terminus
# Biological target: BACE1 (Homo sapiens, UniProt P56817)
# Experiment: FRET peptide cleavage assay, BACE1 activity on peptide substrates
# Type: biochemical
# Conditions: pH 4.5, substrate 5 μM, FIG. 7
# Chain of BACE1 (P56817 46-501, species assumed): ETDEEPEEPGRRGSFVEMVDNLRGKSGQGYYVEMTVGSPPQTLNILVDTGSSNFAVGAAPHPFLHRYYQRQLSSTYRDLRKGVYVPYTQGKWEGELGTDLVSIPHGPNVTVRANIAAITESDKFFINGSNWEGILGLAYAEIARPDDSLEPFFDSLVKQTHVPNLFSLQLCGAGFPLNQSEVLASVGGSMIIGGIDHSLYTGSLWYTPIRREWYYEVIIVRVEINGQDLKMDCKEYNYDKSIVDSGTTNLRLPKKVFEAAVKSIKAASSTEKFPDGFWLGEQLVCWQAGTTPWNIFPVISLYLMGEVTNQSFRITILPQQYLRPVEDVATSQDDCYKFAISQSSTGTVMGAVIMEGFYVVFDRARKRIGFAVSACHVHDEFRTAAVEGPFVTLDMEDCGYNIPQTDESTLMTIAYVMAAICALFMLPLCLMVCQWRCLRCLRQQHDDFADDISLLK
row,Substance,BACE1 activity against FRET peptide substrate
1,"dabsyl—QTLEFLKIPS—LucY: FRET peptide based on the TMEM27 sequence, dabsyl at N terminus and Lucifer Yellow at C-terminus (dabsyl-QTLEFLKIPS-{Lucifer Yellow})",insignificant activity

# Biological target: T1, BACE2 (Homo sapiens, UniProt Q9Y5Z0)
# T1 construct: made in house; host or cells: E. coli BL21(DE3)
# T1 sequence (Q9Y5Z0 20-465): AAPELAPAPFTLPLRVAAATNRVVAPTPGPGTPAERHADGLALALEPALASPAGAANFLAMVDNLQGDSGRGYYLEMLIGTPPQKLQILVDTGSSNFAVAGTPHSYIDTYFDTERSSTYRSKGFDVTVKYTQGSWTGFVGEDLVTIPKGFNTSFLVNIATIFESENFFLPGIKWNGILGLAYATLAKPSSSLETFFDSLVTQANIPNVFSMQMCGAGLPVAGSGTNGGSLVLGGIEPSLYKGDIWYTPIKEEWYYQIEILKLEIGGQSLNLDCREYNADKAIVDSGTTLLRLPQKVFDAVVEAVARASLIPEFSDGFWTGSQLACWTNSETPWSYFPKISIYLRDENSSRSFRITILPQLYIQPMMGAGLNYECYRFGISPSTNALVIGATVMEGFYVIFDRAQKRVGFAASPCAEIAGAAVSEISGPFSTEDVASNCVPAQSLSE
# Experiment: MR121-peptide cleavage assay
# Type: biochemical
# Design: scale not given here
# Conditions: substrate peptides labelled with MR121 at N-terminus and tryptophan at C-terminus
# Experimental: In a related assay, a peptide was devised with the same sequence, which was labeled at the N-terminus with MR121 and at the C-terminus with Tryptophan.
# Substrate peptides derived from TMEM27 with activity in the MR121-peptide cleavage assay.
# (§1) BACE2 enzyme ectodomain was prepared as described in Ostermann et al [“Crystal Structure of Human BACE2 in Complex with a Hydroxyethylamine Transition-state Inhibitor.” Journal of Molecular Biology 355 (2006) 249-261].
row,Substance,Relative activity
1,C LEFLKI W: Substrate peptide derived from TMEM27 for MR121-peptide cleavage assay (MR121-CLEFLKIW),24
2,C QELEFLKI W: Substrate peptide derived from TMEM27 for MR121-peptide cleavage assay (MR121-CQELEFLKIW),100
3,C QTLEF W: Substrate peptide derived from TMEM27 for MR121-peptide cleavage assay (MR121-CQTLEFW),21
4,C QTLEFL W: Substrate peptide derived from TMEM27 for MR121-peptide cleavage assay (MR121-CQTLEFLW),32
5,C QTLEFLK W: Substrate peptide derived from TMEM27 for MR121-peptide cleavage assay (MR121-CQTLEFLKW),62
6,C QTLEFLKI W: Substrate peptide derived from TMEM27 for MR121-peptide cleavage assay (MR121-CQTLEFLKIW),96
7,C QTLEFLKIP W: Substrate peptide derived from TMEM27 for MR121-peptide cleavage assay (MR121-CQTLEFLKIPW),75
8,C QTLEFLKIPS W: Substrate peptide derived from TMEM27 for MR121-peptide cleavage assay (MR121-CQTLEFLKIPSW),91
9,C TLEFLKI W: Substrate peptide derived from TMEM27 for MR121-peptide cleavage assay (MR121-CTLEFLKIW),28

# Test system: Min6 cells
# Experiment: Proliferation assay in Min6 cells (EdU, confocal microscopy)
# Type: cell-based
# Conditions: 48 hours, p<10-6, FIG. 5a
# Experimental: 50′000 MING B1 cells per well were seeded in a 96-well plate using standard trypsinization method. The following day, serum-supplemented complete medium (described earlier) was removed and replaced by serum-free and low glucose medium (Invitrogen) supplemented with the compound as follows: 10 nM exendin-4 (Sigma-Aldrich) as a positive control was added to the cells every 12 h, to avoid degradation. […] As an absolute positive control cells were also grown in FCS supplemented standard media. Cells were incubated for 48 hours.
# After this incubation, medium was discarded and replaced by the serum-supplemented medium containing 10 nM EdU (Invitrogen) and incubated for 1 h at 37° C. […]
# Spinning-disc confocal fluorescence microscopy of the 96-well plate has been performed on the high-throughput automated imaging system Opera™ QEHS (PerkinElmer Cellular Technologies, Hamburg, Germany). […] In each well, typically 12 pairs of scanning images were recorded through a UAPO 20×NA 0.7 water immersion objective lens (Olympus) and optimized filter sets by 2 independent high quantum-efficiency 12 bit CCD cameras (1.3 mega pixels monochrome). […]
# Confocal micrographs were analyzed using the proprietary software environment of PerkinElmer's Opera (Acapella 1.8, PerkinElmer Cellular Technologies, Hamburg, Germany). […]
row,Substance,proliferation rate compared to basal proliferation rate of starved cells
1,exendin-4,highly significant proliferation increase

# Biological target: T1, BACE2
# Experiment: FRET peptide cleavage assay, BACE2 activity on peptide substrates
# Type: biochemical
# Conditions: pH 4.5, substrate 5 μM, FIG. 7 and FIG. 9
# Experimental: The FRET assay was performed essentially as described in Grüninger-Leitch et al. [Substrate and inhibitor profile of BACE (beta-secretase) and comparison with other mammalian aspartic proteases. Journal of Biological Chemistry (2002) 277(7) 4687-93]. In summary, a peptide is designed that is cleaved by the protease. The peptide is labelled with dabsyl at the N terminus and Lucifer Yellow at the C-terminus, such that for an intact peptide the Lucifer Yellow fluorescence is quenched by the dabsyl. When the peptide is cut by BACE2, the quenching is removed and a fluorescent signal is generated.
# The assay was performed as described in Grueninger et al. 2002 at pH 4.5 using a substrate concentration of 5 μM. All FRET-peptides had the format described.
# as §1
row,Substance,BACE2 activity against FRET peptide substrate
1,dabsyl-NSLEFLGIQP-lucifer yellow: FRET peptide based on the sequence of ACE2 at the site equivalent to the BACE2 cleavage site in TMEM27 (dabsyl-NSLEFLGIQP-{Lucifer Yellow}),efficiency greater than that of the TMEM27 substrate
2,"dabsyl—QTLEFLKIPS—LucY: FRET peptide based on the TMEM27 sequence, dabsyl at N terminus and Lucifer Yellow at C-terminus (dabsyl-QTLEFLKIPS-{Lucifer Yellow})",high activity
